Assay results from patent publication US20240240209A1, “SYNTHESIS OF ENANTIOPURE CIS-A-IRONE FROM A RENEWABLE CARBON SOURCE” (Agency for Science, Technology and Research, priority 2021, published 2024).

Assay: Cell lysate reaction of pMT enzymes with psi-ionone, irones quantified by HS-SPME-GCMS
Assay type: biochemical
Conditions: for fold change in cis-α-irone produced: AUC vs non-mutated (=1)
Description: Using the structure of pMT1 in complex with the cofactor S-adenosyl-L-homocysteine (SAH) and the substrate teleocidin A1 (PDB id: 5GM2) as a template, pMT1 bound to each of the four isomers of α-irone was modelled with the aim of identifying amino acid residues that could be critical to increase cis-α-irone or decrease trans-α-irone production (FIGS. 2d and 2e). […] Site-directed mutagenesis of the 24 residues was carried out with degenerative primers. Subsequently, the mutants of each site were pooled together, and examined if the activity or product-selectivity of the pooled mutants were increased (FIG. 8). This reduced the number of screening reactions to 24, which is manageable when a high-throughput enzymatic assay is not available. […] One residue was chosen and subjected to site-saturation mutagenesis by using degenerative primers containing NNN or NNK. The plasmid library was then transformed into E. coli BL21 (DE3) cells and plated on agar plate containing autoinduction media^19. […] Subsequently, the colonies were collected and resuspended in phosphate saline buffer. Equal number of cells was taken for lysis and cell lysate reactions were carried out in capped SPME-GC vials at 28° C. for 2 days. HS-SPME-GCMS analysis was used to quantify the amount of irones produced by each pooled-colony reaction. […] 24 residues including the control Gly85 (G85m) were subjected to site-saturation mutagenesis, using pMT1 as the template. […] The amount of cis-α-irone produced was estimated based on the area under the gas chromatogram curve (AUC). The fold change is calculated by comparing the AUC of cis-α-irone produced by the mutant enzyme to that of non-mutated.
For each pMT mutant, it was transformed into BL21 and grown in autoinduction media with 5 mM lactose at 20° C. for 36 hrs. Then, cells were pelleted and concentrated 10 times by adding 1 ml of PBS. The OD600 was measured and 40*600 OD*ul cells were transferred into a new 1.5 ml tube. The cells were spun down and resuspended in 600 μl of lysis buffer (1×DNase buffer, 150 mM NaCl, 0.5% glycerol, 1 mg/ml lysozyme and 20U of DNasel). The cells were incubated for 2 hrs at 20° C. with shaking at 300 rpm. Following that, 2 cycles of freeze-thaw was done to completely lyse the cells. At the end of the 2nd thawing, the cell lysate was used to setup a 1 ml reaction in 2 ml GC vials. The reaction consisted of 50 mM Tris (pH7), 10 mM MgCl2, 60 mM NaCl, 0.2 mM SAM and 10 mg/L of psi-ionone and caryophyllene each. To this, 500 μl of cell lysate was added while the remaining 100 μl was used for SDS-PAGE to analyze the total and soluble protein expression. The reaction was incubated for 2 days at 28° C., 300 rpm prior to extraction of cis-α-irone with 500 μl hexane. From this, 20 μl of organic layer was taken into 180 μl hexane for GCMS analysis.
For the mutant pMT activity screening, the reactants and products were analyzed by head space solid phase microextraction (HS-SPME) coupled with an Agilent 5977B gas chromatography (GC) system equipped with Agilent DB-5 ms column (30 m×250 μm×0.25 μm) and mass spectrometry (MS) with high efficiency source. The reaction mixtures were carried out in SPME vials which were incubated at 60° C. for 20 mins to allow the release of volatile compounds. The absorbent fiber (50/30 μm divinylbenzol/carboxen/polydimethyl-SPME fiber, SUPELCO) was then exposed to the headspace of the vial for 20 mins. The extracted analytes were desorbed at the GC inlet at 250° C. for 1 min and injected into GC with a split ratio of 200:1. The GC oven temperature increased from 50° C. to 140° C. at a rate of 10° C./min and held at 140° C. for 10 min. Subsequently, the temperature was increased to 320° C. at a rate of 60° C./min and held at 320° C. for 2 mins.

B1: pMT9: pMT1 with Y200F S182E L273V L180A A202L Y65F C156A (protein)
chain: MPQEARTPQQQVTADEVGDWYDKFGEVYHLTLGESVHCGLWFPPDAPVPQDMELVTMSSQAQDRYTDYLIETLDPKAGQHLLDIGCGTGRTALKAARQRGIAVTGVAVSKEQIAAANRLAAGHGLTERLTFEVADAMRLPYEDESFDCAWAIESLAHMDRAKALGEAWRVLKPGGDLLVAEEVVTEELTEPETALFETLFALNVPPRLGEFFDIVSGAGFHTLSLKDLSANLAMTMNVFALGVYSRRAEFTERFGAEFVDGLLAGLGSAQETVIRKTRFFMATLRKPAV
modifications: Modified from pMT1
notes: pMT1 with Y200F S182E L273V L180A A202L Y65F C156A
irone production / methyltransferase activity towards psi-ionone (in words) (cell lysate reaction, vs parent or control): increased both α- and β-irone production

B2: pMT1_E153H: pMT1 with E153H (protein)
chain: MPQEARTPQQQVTADEVGDWYDKFGEVYHLTLGESVHCGLWFPPDAPVPQDMELVTMSSQAQDRYTDYLIETLDPKAGQHLLDIGCGTGRTALKAARQRGIAVTGVAVSKEQIAAANRLAAGHGLTERLTFEVADAMRLPYEDESFDCAWAIHSLCHMDRAKALGEAWRVLKPGGDLLVLESVVTEELTEPETALFETLYAANVPPRLGEFFDIVSGAGFHTLSLKDLSANLAMTMNVFALGVYSRRAEFTERFGAEFVDGLLAGLGSAQETLIRKTRFFMATLRKPAV
fold change in cis-α-irone produced (pMT1_E153 mutants): 0.0

B3: pMT1_R160G (protein)
chain: MPQEARTPQQQVTADEVGDWYDKFGEVYHLTLGESVHCGLWFPPDAPVPQDMELVTMSSQAQDRYTDYLIETLDPKAGQHLLDIGCGTGRTALKAARQRGIAVTGVAVSKEQIAAANRLAAGHGLTERLTFEVADAMRLPYEDESFDCAWAIESLCHMDGAKALGEAWRVLKPGGDLLVLESVVTEELTEPETALFETLYAANVPPRLGEFFDIVSGAGFHTLSLKDLSANLAMTMNVFALGVYSRRAEFTERFGAEFVDGLLAGLGSAQETLIRKTRFFMATLRKPAV
fold change in cis-α-irone produced (pMT1_R160 mutants): 0.0

B4: pMT1_R160H: pMT1 with R160H (protein)
chain: MPQEARTPQQQVTADEVGDWYDKFGEVYHLTLGESVHCGLWFPPDAPVPQDMELVTMSSQAQDRYTDYLIETLDPKAGQHLLDIGCGTGRTALKAARQRGIAVTGVAVSKEQIAAANRLAAGHGLTERLTFEVADAMRLPYEDESFDCAWAIESLCHMDHAKALGEAWRVLKPGGDLLVLESVVTEELTEPETALFETLYAANVPPRLGEFFDIVSGAGFHTLSLKDLSANLAMTMNVFALGVYSRRAEFTERFGAEFVDGLLAGLGSAQETLIRKTRFFMATLRKPAV
fold change in cis-α-irone produced (pMT1_R160 mutants): 1.0

B5: pMT1_Y200G: pMT1 with Y200G (protein)
chain: MPQEARTPQQQVTADEVGDWYDKFGEVYHLTLGESVHCGLWFPPDAPVPQDMELVTMSSQAQDRYTDYLIETLDPKAGQHLLDIGCGTGRTALKAARQRGIAVTGVAVSKEQIAAANRLAAGHGLTERLTFEVADAMRLPYEDESFDCAWAIESLCHMDRAKALGEAWRVLKPGGDLLVLESVVTEELTEPETALFETLGAANVPPRLGEFFDIVSGAGFHTLSLKDLSANLAMTMNVFALGVYSRRAEFTERFGAEFVDGLLAGLGSAQETLIRKTRFFMATLRKPAV
fold change in cis-α-irone produced (pMT1_Y200 mutants): 0.1

B6: pMT1_E153G: pMT1 with E153G (protein)
chain: MPQEARTPQQQVTADEVGDWYDKFGEVYHLTLGESVHCGLWFPPDAPVPQDMELVTMSSQAQDRYTDYLIETLDPKAGQHLLDIGCGTGRTALKAARQRGIAVTGVAVSKEQIAAANRLAAGHGLTERLTFEVADAMRLPYEDESFDCAWAIGSLCHMDRAKALGEAWRVLKPGGDLLVLESVVTEELTEPETALFETLYAANVPPRLGEFFDIVSGAGFHTLSLKDLSANLAMTMNVFALGVYSRRAEFTERFGAEFVDGLLAGLGSAQETLIRKTRFFMATLRKPAV
fold change in cis-α-irone produced (pMT1_E153 mutants): 0.0

B7: pMT1_R160F: pMT1 with R160F (protein)
chain: MPQEARTPQQQVTADEVGDWYDKFGEVYHLTLGESVHCGLWFPPDAPVPQDMELVTMSSQAQDRYTDYLIETLDPKAGQHLLDIGCGTGRTALKAARQRGIAVTGVAVSKEQIAAANRLAAGHGLTERLTFEVADAMRLPYEDESFDCAWAIESLCHMDFAKALGEAWRVLKPGGDLLVLESVVTEELTEPETALFETLYAANVPPRLGEFFDIVSGAGFHTLSLKDLSANLAMTMNVFALGVYSRRAEFTERFGAEFVDGLLAGLGSAQETLIRKTRFFMATLRKPAV
fold change in cis-α-irone produced (pMT1_R160 mutants): 0.0

B8: pMT1_M236F: pMT1 with M236F (protein)
chain: MPQEARTPQQQVTADEVGDWYDKFGEVYHLTLGESVHCGLWFPPDAPVPQDMELVTMSSQAQDRYTDYLIETLDPKAGQHLLDIGCGTGRTALKAARQRGIAVTGVAVSKEQIAAANRLAAGHGLTERLTFEVADAMRLPYEDESFDCAWAIESLCHMDRAKALGEAWRVLKPGGDLLVLESVVTEELTEPETALFETLYAANVPPRLGEFFDIVSGAGFHTLSLKDLSANLAMTFNVFALGVYSRRAEFTERFGAEFVDGLLAGLGSAQETLIRKTRFFMATLRKPAV
fold change in cis-α-irone produced (pMT1_M236 mutants): 0.0

B9: pMT1_M236G: pMT1 with M236G (protein)
chain: MPQEARTPQQQVTADEVGDWYDKFGEVYHLTLGESVHCGLWFPPDAPVPQDMELVTMSSQAQDRYTDYLIETLDPKAGQHLLDIGCGTGRTALKAARQRGIAVTGVAVSKEQIAAANRLAAGHGLTERLTFEVADAMRLPYEDESFDCAWAIESLCHMDRAKALGEAWRVLKPGGDLLVLESVVTEELTEPETALFETLYAANVPPRLGEFFDIVSGAGFHTLSLKDLSANLAMTGNVFALGVYSRRAEFTERFGAEFVDGLLAGLGSAQETLIRKTRFFMATLRKPAV
fold change in cis-α-irone produced (pMT1_M236 mutants): 0.0

B10: pMT1_M236H: pMT1 with M236H (protein)
chain: MPQEARTPQQQVTADEVGDWYDKFGEVYHLTLGESVHCGLWFPPDAPVPQDMELVTMSSQAQDRYTDYLIETLDPKAGQHLLDIGCGTGRTALKAARQRGIAVTGVAVSKEQIAAANRLAAGHGLTERLTFEVADAMRLPYEDESFDCAWAIESLCHMDRAKALGEAWRVLKPGGDLLVLESVVTEELTEPETALFETLYAANVPPRLGEFFDIVSGAGFHTLSLKDLSANLAMTHNVFALGVYSRRAEFTERFGAEFVDGLLAGLGSAQETLIRKTRFFMATLRKPAV
fold change in cis-α-irone produced (pMT1_M236 mutants): 2.6

B11: pMT1_Y200H: pMT1 with Y200H (protein)
chain: MPQEARTPQQQVTADEVGDWYDKFGEVYHLTLGESVHCGLWFPPDAPVPQDMELVTMSSQAQDRYTDYLIETLDPKAGQHLLDIGCGTGRTALKAARQRGIAVTGVAVSKEQIAAANRLAAGHGLTERLTFEVADAMRLPYEDESFDCAWAIESLCHMDRAKALGEAWRVLKPGGDLLVLESVVTEELTEPETALFETLHAANVPPRLGEFFDIVSGAGFHTLSLKDLSANLAMTMNVFALGVYSRRAEFTERFGAEFVDGLLAGLGSAQETLIRKTRFFMATLRKPAV
fold change in cis-α-irone produced (pMT1_Y200 mutants): 0.2

B12: pMT1_E153F: pMT1 with E153F (protein)
chain: MPQEARTPQQQVTADEVGDWYDKFGEVYHLTLGESVHCGLWFPPDAPVPQDMELVTMSSQAQDRYTDYLIETLDPKAGQHLLDIGCGTGRTALKAARQRGIAVTGVAVSKEQIAAANRLAAGHGLTERLTFEVADAMRLPYEDESFDCAWAIFSLCHMDRAKALGEAWRVLKPGGDLLVLESVVTEELTEPETALFETLYAANVPPRLGEFFDIVSGAGFHTLSLKDLSANLAMTMNVFALGVYSRRAEFTERFGAEFVDGLLAGLGSAQETLIRKTRFFMATLRKPAV
fold change in cis-α-irone produced (pMT1_E153 mutants): 0.0
